Assays:
Orai1 [1] = biological target: T1, Orai1 (Homo sapiens, UniProt Q96D31); assay: Co-immunoprecipitation with Orai1 in HEK 293T cells; type: binding; design: expressed in transfected cells; host or cells: HEK 293; conditions: 150 mM salt, 1% Triton X-100
Description: Immunoprecipitation and Immunoblot Analysis. Transfected HEK 293T cells (12-24 h) were washed with PBS and lysed in 50 mM Tris-HCl pH 7.5, 150 mM NaCl, 1% Triton X-100, and protease inhibitors. Lysates were spun at 12,000 rpm for 10 min, and the supernatant was incubated with anti-Flag M2 agarose beads (Sigma), or anti-myc or -HA antibody followed by IgG agarose beads (Pierce). Lysates and immunoprecipitates were subjected to SDS-PAGE, probed with HRP-conjugated secondary antibody and detected by enhanced chemiluminescence (Pierce).
CAD Associates with Orai1 in vivo and in vitro. Because cytosolic CAD is a potent activator of Orai1 channels and is not associated with the ER, we hypothesized that CAD binds to Orai1. To test this idea, we first expressed YFP-CAD with or without myc-Orai1 in HEK 293 cells and examined its intracellular localization. […] To provide additional evidence that CAD and Orai1 are part of the same protein complex we expressed Flag-tagged CAD and GFP-tagged Orai1 in HEK 293T cells and immunoprecipitated CAD with anti-Flag antibodies. GFP-myc-Orai1 was detected in the immunoprecipitates from cells co-expressing CAD and Orai1 but not from cells expressing CAD or Orai1 alone (FIG. 3B).
Thus, CAD and Orai1 form a protein complex in mammalian cells.

CRAC channels = biological target: T2, CRAC channels (Homo sapiens, UniProt Q96D31); assay: [Ca2+]i imaging in HEK 293 cells expressing STIM1 fragment and Orai1; type: cell-based
T2 construct: expressed in transfected cells; host or cells: HEK 293
T2 sequence (Q96D31 whole entry, the tested form may be a part): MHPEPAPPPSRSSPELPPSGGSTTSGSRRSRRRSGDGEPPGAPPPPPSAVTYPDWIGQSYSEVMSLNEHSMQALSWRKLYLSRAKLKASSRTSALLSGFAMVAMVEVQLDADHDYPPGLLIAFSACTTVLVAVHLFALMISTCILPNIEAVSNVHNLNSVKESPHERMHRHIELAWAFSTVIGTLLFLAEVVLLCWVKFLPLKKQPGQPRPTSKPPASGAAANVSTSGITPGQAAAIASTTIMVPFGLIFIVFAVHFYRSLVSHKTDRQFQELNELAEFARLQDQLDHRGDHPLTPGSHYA
Description: Ca^2+ Imaging. For FIG. 2, cells were loaded at 37° C. in DMEM with 1 μM fura-2/AM for 30 min. Ratiometric Ca2+ imaging was performed at 340 and 380 nm in 2 mM Ca2+ Ringer's solution with a Nikon Eclipse 2000-U inverted microscope equipped with a fluorescent arc lamp, excitation filter wheel, and a Hamamatsu Orca CCD camera. Images were collected using Openlab (Improvision) and analyzed using Igor Pro.
To determine if CAD activates store operated Ca^2+ influx in cells, we measured [Ca^2+]i in HEK 293 cells expressing CAD and Orai1.

endogenous CRAC channels = assay: NFAT-luciferase assay in HEK 293T (NFAT-Luc) cells; type: cell-based; conditions: HEK 293T NFAT-luc cells transfected with STIM1 construct; PMA (1 μM) alone
Description: NFAT-luciferase Assays. HEK 293T cells were co-transfected with the indicated constructs and an NFAT reporter gene (firefly luciferase gene C-terminal to 4×-NFAT site from the IL-2 gene). Cotransfection with the Renilla luciferase (pRLTK) gene driven by the TK promoter was used to control for cell number and transfection efficiency. After 12-18 h, cells were treated with a control DMSO solution (mock), PMA (1 μM), or PMA plus TG (1 μM) for 8 h. Assays were performed using the Dual Luciferase Reporter assay system (Promega). For each condition, luciferase activity was measured with 4 samples taken from duplicate wells using a 96-well automated luminometer (Turner Biosystems). Results are represented as the ratio of firefly to Renilla luciferase activity.
Identifying a Minimal Cytosolic Region of STIM1 that Opens the CRAC Channel. To identify the CRAC-activating domain of STIM1, we first tested a series of soluble cytosolic STIM1 fragments for their ability to activate an NFAT-dependent luciferase reporter gene (NFAT-luc). A series of constructs were generated by progressive truncation of the full-length cytosolic region of STIM1 (FIG. 2A; STIM1234-685; CT-STIM1) and were transiently expressed in a HEK 293T cell line containing NFAT-luc. […]

EE-Orai1-His8 = biological target: T3, EE-Orai1-His8 (Homo sapiens, UniProt Q96D31); assay: GST pull-down assay with purified proteins; type: binding; conditions: in vitro
T3 construct: made in house; host or cells: Hi5 insect cells (baculovirus, pVL1393)
T3 sequence (Q96D31 whole entry): as the sequence (Q96D31 whole entry, the tested form may be a part) above
Description: GST Pull-down Assays. For GST pull-down assays, either GST-CAD (0.16 μM) or GST (0.15 μM) was incubated with EE-Orai1-His8 (0.1 μM) for 1 h in buffer containing (in mM): 20 Tris-HCl (pH 8.0), 150 NaCl, 20 imidazole, and 1 DTT with protease inhibitors. After addition of glutathione sepharose the beads were centrifuged, washed with the above buffer, and the precipitated proteins were eluted with boiling SDS and analyzed by SDS-PAGE and Western blotting.
CAD Binds Directly to Orai1. To test for direct binding between the CAD and Orai1 we generated a GST-tagged CAD peptide in E. coli and an Orai1 protein containing C-terminal octa-histidine and N-terminal EEYMPME (“EE”) tags in insect Hi5 cells. We incubated purified GST-CAD or GST alone with purified EE-Orai1-His8 and used glutathione beads to precipitate the complexes.

Orai1 [2] = biological target: T1, Orai1; assay: Puncta formation of STIM1 variants by confocal microscopy in HEK 293 cells; type: cell-based; design: expressed in transfected cells; host or cells: HEK 293; conditions: coexpressed with eGFP-Orai1, TG
Description: (§1) Confocal Microscopy. 6 h after transfection, HEK 293 cells were plated onto sterilized coverslips coated with poly-D-lysine and maintained in complete DMEM for an additional 12-18 h before imaging in Ringer's solution containing (in mM): 155 NaCl, 4.5 KCl, 2 CaCl2, 1 MgCl2, 10 D-glucose, and 5 Na-Hepes, pH 7.4. To deplete stores, cells were treated with 1 μM TG in Ca2+-free Ringer's (prepared by substituting 2 mM MgCl2 and 1 mM EGTA for CaCl2) for 10 min. eGFP and mCherry were excited simultaneously at 488 and 594 nm, respectively, on a Leica SP2 AOBS inverted confocal microscope equipped with a PL APO 100×/NA 1.4 oil immersion objective. Fluorescence emissions were collected at 615-840 nm (mCherry) and 510-570 nm (eGFP). All experiments were performed at 22-25° C.
Quantitation of STIM1 and Orai1 Recruitment into Puncta. Colocalization of eGFP-Orai1 and mCh-STIM1 variants was analyzed from background-corrected confocal image pairs acquired before and after store depletion. Puncta have two defining characteristics: (1) because they are sites of accumulation, STIM1 and Orai1 fluorescence intensities in puncta are greater than the respective mean intensities measured across the entire cell, and (2) because STIM1 and Orai1 co-localize in puncta, their fluorescence covariance is high. For each STIM1/Orai1 image pair, we computed the covariance of each pixel as (Si−s) (Oi−o), where Si and Oi are the STIM1 and Orai1 fluorescence of pixel i, and s and o are the mean STIM1 and Orai1 fluorescence of the entire cell. A threshold criterion for puncta was set using the pre-depletion image pair. The mean and s.d. of the covariance values were calculated from pixels for which both Si>s and Oi>o, and a covariance threshold was set equal to the mean+2×s.d. of this pre-depletion condition. Binary masks were applied to the pre- and post-depletion image pairs to isolate pixels for which Si>s and Oi>o and whose covariance exceeds the pre-depletion threshold. […] Integrated STIM1 or Orai1 puncta intensity was calculated from the masked images and expressed as a fraction of the total fluorescence intensity in the unmasked image. […]
The Role of CAD in Orai1 Binding and Activation by STIM1. […] To address this, we measured the ability of mCherry-tagged STIM1 variants containing CAD mutations to co-cluster with eGFP-Orai1 and activate Ca^2+ entry in response to TG (FIG. 7). STIM1-Orai1 colocalization was quantified as the fraction of total STIM1 and Orai1 fluorescence that was recruited to regions of high fluorescence covariance (FIG. 13), while Ca^2+ influx was measured with single cell Ca^2+ imaging. For each set of experiments we measured mCherry and GFP fluorescence to confirm that differences in the activity of the various STIM1 constructs were not due to differences in expression level (FIG. 14).

Orai1 [3] = biological target: T1, Orai1; assay: Store-operated Ca2+ entry by STIM1 variants, single cell Ca2+ imaging; type: cell-based; design: expressed in transfected cells; host or cells: HEK 293; conditions: coexpressed with eGFP-Orai1, TG
Description: For FIG. 7, cells were loaded as above with 2 μM fura-2/AM for 25 min. Ratiometric Ca2+ imaging was performed with 350 and 380 nm excitation in 2 mM Ca2+ Ringer's solution on an Axiovert 35 inverted microscope using a VideoProbe imaging system as described (Bautista et al., 2002). mCherry-positive cells were identified using a 540±12 nm excitation and a 580LP emission filter (Chroma).
The Role of CAD in Orai1 Binding and Activation by STIM1. A key question is whether CAD is responsible for the clustering and activation of CRAC channels by full-length STIM1 following store depletion. To address this, we measured the ability of mCherry-tagged STIM1 variants containing CAD mutations to co-cluster with eGFP-Orai1 and activate Ca^2+ entry in response to TG (FIG. 7). STIM1-Orai1 colocalization was quantified as the fraction of total STIM1 and Orai1 fluorescence that was recruited to regions of high fluorescence covariance (FIG. 13), while Ca^2+ influx was measured with single cell Ca^2+ imaging. For each set of experiments we measured mCherry and GFP fluorescence to confirm that differences in the activity of the various STIM1 constructs were not due to differences in expression level (FIG. 14).

Orai1 [4] = biological target: T1, Orai1; assay: Whole-cell patch clamp recording of ICRAC in transfected HEK 293 cells; type: cell-based; design: expressed in transfected cells; host or cells: HEK 293
Description: Electrophysiology. HEK 293 cells were transfected 8-24 h prior to electrophysiology experiments with STIM1- and Orai1-derived constructs in a 1:1 mass ratio using Lipofectamine 2000. […] ICRAC in cells cultured without LaCl3 was similar to that in cells cultured with LaCl3, but most cells without LaCl3 died soon after break-in.
Currents were recorded using standard whole-cell patch clamp techniques (Prakriya and Lewis, 2001). Pipettes of resistance 2-5 MΩ were filled with an internal solution containing (in mM) 150 Cs aspartate, 8 MgCl2, 10 EGTA, and 10 HEPES (pH 7.2 with CsOH). Currents were sampled at 5 kHz and filtered at 2 kHz, and all voltages were corrected for the junction potential of the pipette solution relative to Ringer's in the bath (−13 mV).
Patch-clamp Experiments. Pipette-membrane seals were formed in 2 mM Ca^2+ Ringer's solution. After break-in to the whole-cell configuration, voltage stimuli consisting of a 100-ms step to −100 mV followed by a 100-ms ramp from −100 to +100 mV were delivered every 5 s from the holding potential of +30 mV. After the currents reached a steady level (˜300 s for wild-type STIM1), the external solution was changed via a multibarrel local perfusion pipette to a high-Ca^2+ Ringer's containing (in mM) 130 NaCl, 4.5 KCl, 20 CaCl2, 1 MgCl2, 10 D-glucose, and 5 HEPES (pH 7.4 with NaOH). All data were leak-corrected using the current elicited in 20 mM Ca^2+ Ringer's+10 μM LaCl3 at the end of the each experiment. LaCl3 and 2-APB were added directly to parent solutions on the day of the experiment from 10 mM and 100 mM stocks in H2O and DMSO, respectively.
As a definitive test for CRAC channel activation, we conducted whole-cell patch clamp recordings from HEK 293 cells transiently transfected with myc-Orai1 and either YFP-STIM1 or YFP-CAD. In cells expressing full length YFP-STIM1, ICRAC appeared over several minutes following break-in, consistent with the typical slow activation seen in response to passive store depletion (FIG. 2D). […] In contrast, inward current was present from the moment of break-in in cells expressing YFP-CAD (FIG. 2E). This current was identified as ICRAC based on its dependence on extracellular Ca^2+, inward rectification, sequential enhancement and inhibition by 2-APB, and inhibition by La^3+ (FIG. 2E and FIG. 10 C, D). ICRAC was not observed at break-in in HEK 293 cells transfected with YFP or YFP-CAD in the absence of Orai1 (FIG. 2F), consistent with the low level of endogenous STIM1 and Orai1 in these cells. […] Inactivation was restored by addition of STIM1 residues carboxy-terminal to CAD.

Orai1 [5] = assay: Puncta formation of STIM1 variants by confocal microscopy in HEK 293 cells; type: cell-based; conditions: expressed alone in HEK 293 cells
Description: as §1
Quantitation of STIM1 and Orai1 Recruitment into Puncta. Colocalization of eGFP-Orai1 and mCh-STIM1 variants was analyzed from background-corrected confocal image pairs acquired before and after store depletion. Puncta have two defining characteristics: (1) because they are sites of accumulation, STIM1 and Orai1 fluorescence intensities in puncta are greater than the respective mean intensities measured across the entire cell, and (2) because STIM1 and Orai1 co-localize in puncta, their fluorescence covariance is high. […]

Orai1 [6] = biological target: T1, Orai1; assay: Intracellular localization of YFP-CAD in HEK 293 cells; type: cell-based; design: expressed in transfected cells; host or cells: HEK 293; conditions: with myc-Orai1
Description: as §1
CAD Associates with Orai1 in vivo and in vitro. Because cytosolic CAD is a potent activator of Orai1 channels and is not associated with the ER, we hypothesized that CAD binds to Orai1. To test this idea, we first expressed YFP-CAD with or without myc-Orai1 in HEK 293 cells and examined its intracellular localization. […] GFP-myc-Orai1 was detected in the immunoprecipitates from cells co-expressing CAD and Orai1 but not from cells expressing CAD or Orai1 alone (FIG. 3B).

T1 sequence (Q96D31 whole entry): as the sequence (Q96D31 whole entry, the tested form may be a part) above

CT-STIM1: full-length cytosolic region of STIM1 (aa 234-685) [reference compound]
co-immunoprecipitation with Orai1 (Orai1 [1]): unable to detect any interaction
resting [Ca2+]i (CRAC channels; HEK 293T cells coexpressing construct and Orai1): did so
[Ca2+]i / CRAC channel activation (CRAC channels; HEK 293 cells coexpressing construct and Orai1, no store depletion): did not elevate resting [Ca^2+]i
activation of NFAT-dependent luciferase reporter gene (NFAT-luc) (endogenous CRAC channels): did not activate

GST-CAD: GST-tagged CAD peptide generated in E. coli
co-precipitation of purified Orai1 with glutathione beads (EE-Orai1-His8): co-precipitated Orai1

STIM1 C437G: STIM1 C437G mutant
puncta formation with Orai1 after store depletion (Orai1 [2]): formed pronounced puncta with Orai1
Ca2+ entry (SOCE) after store depletion (Orai1 [3]): only marginally activated SOCE

STIM1-DK: STIM1 lacking the polybasic C-terminal domain (aa 672-685)
puncta formation with Orai1 after store depletion (Orai1 [2]): colocalized in puncta
ICRAC after store depletion (Orai1 [4]; HEK 293 cells coexpressing STIM1 variant and Orai1): activated ICRAC
puncta formation after store depletion (Orai1 [5]): failed to form puncta

STIM11-440: STIM1 1-448 with the final 8 aa deleted
puncta formation with Orai1 after store depletion (Orai1 [2]): retained the ability to form puncta and cluster Orai1
Ca2+ entry (SOCE) after store depletion (Orai1 [3]): failed to activate SOCE

STIM11-448: STIM1 truncated from the C-terminus to the end of the CAD
puncta formation with Orai1 after store depletion (Orai1 [2]): formed puncta with Orai1
Ca2+ entry (SOCE) after store depletion (Orai1 [3]): activated Ca^2+ entry

YFP-CAD: YFP-tagged CAD expressed in HEK 293 cells
constitutive ICRAC (Orai1 [4]; HEK 293 cells cotransfected with construct and myc-Orai1, from break-in): constitutively active
localization on coexpression of Orai1 (Orai1 [6]): dramatic recruitment of YFP-CAD to the plasma membrane

Source: US20120165265A1, “Calcium Signaling Modulators Involving STIM and ORAI Proteins” (priority 2009, published 2012)
